In paper PMC9637102, “Structural basis for the activation of the lipid scramblase TMEM16F” (Nature Communications, 2022):
Substitutions are numbered along the chain they refer to. In names and notes the source's numbering stands.

B1: murine TMEM16F mutant F518H (natural protein, UniProt Q6P9J9 1-911, looked up)
chain: MQMMTRKVLLNMELEEDDDEDGDIVLENFDQTIVCPTFGSLENQQDFRTPEFEEFNGKPDSLFFTDGQRRIDFILVYEDESKKENNKKGTNEKQKRKRQAYESNLICHGLQLEATRSVSDDKLVFVKVHAPWEVLCTYAEIMHIKLPLKPNDLKTRSPFGNLNWFTKVLRVNESVIKPEQEFFTAPFEKSRMNDFYILDRDSFFNPATRSRIVYFILSRVKYQVMNNVNKFGINRLVSSGIYKAAFPLHDCRFNYESEDISCPSERYLLYREWAHPRSIYKKQPLDLIRKYYGEKIGIYFAWLGYYTQMLLLAAVVGVACFLYGYLDQDNCTWSKEVCDPDIGGQILMCPQCDRLCPFWRLNITCESSKKLCIFDSFGTLIFAVFMGVWVTLFLEFWKRRQAELEYEWDTVELQQEEQARPEYEAQCNHVVINEITQEEERIPFTTCGKCIRVTLCASAVFFWILLIIASVIGIIVYRLSVFIVFSTTLPKNPNGTDPIQKYLTPQMATSITASIISHIIIMILNTIYEKVAIMITNFELPRTQTDYENSLTMKMFLFQFVNYYSSCFYIAFFKGKFVGYPGDPVYLLGKYRSEECDPGGCLLELTTQLTIIMGGKAIWNNIQEVLLPWVMNLIGRYKRVSGSEKITPRWEQDYHLQPMGKLGLFYEYLEMIIQFGFVTLFVASFPLAPLLALVNNILEIRVDAWKLTTQFRRMVPEKAQDIGAWQPIMQGIAILAVVTNAMIIAFTSDMIPRLVYYWSFSIPPYGDHTYYTMDGYINNTLSVFNITDFKNTDKENPYIGLGNYTLCRYRDFRNPPGHPQEYKHNIYYWHVIAAKLAFIIVMEHIIYSVKFFISYAIPDVSKITKSKIKREKYLTQKLLHESHLKDLTKNMGIIAERIGGTVDNSVRPKLE
notes: TMEM16F (anoctamin-6), murine; point mutant F518H; A 3C recognition site stands between TMEM16F and the C-terminal Myc and SBP tags; no cleavage is described; also called F518H^noCa; F518H^Ca; source: TMEM16F KO cells in suspension culture, transient transfection (PEI MAX); purified (Strep-tactin, SEC on Superose 6) in digitonin, or reconstituted into MSP 2N2 nanodiscs (3 POPC:1 POPG)
B2: murine TMEM16F mutant N562A (natural protein, UniProt Q6P9J9 1-911, looked up)
chain: B1 chain with H518F, N562A
notes: TMEM16F (anoctamin-6), murine; point mutant N562A; A 3C recognition site stands between TMEM16F and the C-terminal Myc and SBP tags; no cleavage is described; also called N562A^Ca; N562A^Cacc; source: TMEM16F KO cells in suspension culture, transient transfection (PEI MAX); purified (Strep-tactin, SEC on Superose 6) in digitonin
B3: murine TMEM16F double mutant F518A/Q623A (natural protein, UniProt Q6P9J9 1-911, looked up)
chain: B1 chain with H518A, Q623A
notes: TMEM16F (anoctamin-6), murine; double mutant F518A and Q623A; A 3C recognition site stands between TMEM16F and the C-terminal Myc and SBP tags; no cleavage is described; source: TMEM16F KO cells in suspension culture, transient transfection (PEI MAX); purified (Strep-tactin, SEC on Superose 6) in GDN

Assays:
[1] = target: the molecule itself; assay: cryo-EM structure; protein in digitonin (20 mM HEPES pH 7.4, 150 mM NaCl, 2 mM EGTA, 0.1% digitonin), 1.5-2 mg/ml; Ca2+-free, or with 2 mM free CaCl2 and 0.01 mM diC8-PI(4,5)P2; homodimer
[2] = target: the molecule itself; assay: cryo-EM structure; protein in GDN (0.03% in the SEC buffer), Ca2+-bound; homodimer

Protein | binding result [1] | binding result [2]
B1 | binds | 
B2 | binds | 
B3 |  | binds
